{"source": "patent US20240124576A1", "binders": {"B1": {"name": "Ab0 (clone Y14C4), single-chain antibody displayed on yeast (scFv, part only; not given: linker, domain order, tag, anchor, V domains shown, not shown: another chain or arm of the molecule; large carriers; small tags and cut ends)", "VH": "EVQLLESGGGLVQPGGSLRLSCAASGFTFSSYAMSWVRQAPGKGLEWVSTISGGGGSTYYADSVKGRFTISRDNSKNTLYLQMNSLRAEDTAVYYCAKAIGSSWYSDAFDLWGQGTMVTVSS", "VL": "DIQMTQSPSSVSASVGDRVTITCRASQDISSWLAWYQQKPGKAPKLLIYVASSLQSGVPSRFSGSGSGTDFTLTISSLQPEDFATYYCQQSYSIPYTFGQGTKLEIK"}}, "key": {"[1]": {"biological_target": "T1, biotinylated human Siglec-15 protein (Acrobiosystems, Cat. No. SG5-H82E9) (human) (UniProt Q6ZMC9)", "T1 sequence (biotinylated, looked up)": "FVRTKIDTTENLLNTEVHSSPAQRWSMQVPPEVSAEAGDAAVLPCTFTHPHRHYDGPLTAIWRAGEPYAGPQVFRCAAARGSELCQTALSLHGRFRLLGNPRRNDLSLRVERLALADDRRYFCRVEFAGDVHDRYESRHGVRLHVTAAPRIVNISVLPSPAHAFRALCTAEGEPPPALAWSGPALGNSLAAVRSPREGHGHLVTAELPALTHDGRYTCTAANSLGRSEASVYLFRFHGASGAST", "experiment": "flow cytometry of yeast-displayed scFv clone, 30 nM Human S-15 Biotin, Streptavidin-PE"}, "[2]": {"biological_target": "murine S-15 Biotin (Acrobiosystems, Cat. No. SG5-M52H7, biotinylated) (murine)", "experiment": "flow cytometry of yeast-displayed scFv clone, 30 nM Murine S-15 Biotin, Streptavidin-PE"}, "[3]": {"biological_target": "Monkey S-15-Fc (Acrobiosystems, Cat. No. SG5-C5253) (monkey)", "experiment": "flow cytometry of yeast-displayed scFv clone, 10 nM Monkey S-15-Fc, M&H Fc-APC"}, "Irrelevant antigen": {"biological_target": "Irrelevant antigen", "experiment": "flow cytometry of yeast-displayed scFv clone, 30 nM irrelevant antigen, Streptavidin-PE"}}, "data": [{"binder": "B1", "values": [{"measurement": "Human S-15 binding signal", "setting": "[1]", "value": 666, "unit": "MFI"}, {"measurement": "Murine S-15 binding signal", "setting": "[2]", "value": 286, "unit": "MFI"}, {"measurement": "Monkey S-15 binding signal", "setting": "[3]", "value": 588, "unit": "MFI"}, {"measurement": "Irrelevant antigen-binding signal", "setting": "Irrelevant antigen", "value": 12.5, "unit": "MFI"}]}]}
